Source: IntAct's records for PubMed 20639899

B1: E1B 55 kDa protein (Human adenovirus C serotype 5 (HAdV-5)), P03243-1 (parent)
chain: MERRNPSERGVPAGFSGHASVESGCETQESPATVVFRPPGDNTDGGAAAAAGGSQAAAAGAEPMEPESRPGPSGMNVVQVAELYPELRRILTITEDGQGLKGVKRERGACEATEEARNLAFSLMTRHRPECITFQQIKDNCANELDLLAQKYSIEQLTTYWLQPGDDFEEAIRVYAKVALRPDCKYKISKLVNIRNCCYISGNGAEVEIDTEDRVAFRCSMINMWPGVLGMDGVVIMNVRFTGPNFSGTVFLANTNLILHGVSFYGFNNTCVEAWTDVRVRGCAFYCCWKGVVCRPKSRASIKKCLFERCTLGILSEGNSRVRHNVASDCGCFMLVKSVAVIKHNMVCGNCEDRASQMLTCSDGNCHLLKTIHVASHSRKAWPVFEHNILTRCSLHLGNRRGVFLPYQCNLSHTKILLEPESMSKVNLNGVFDMTMKIWKVLRYDETRTRCRPCECGGKHIRNQPVMLDVTEELRPDHLVLACTRAEFGSSDEDTD

Variants of: B1
Conditions: with PML

Variant | effect of a mutation on the interaction
V103D | disrupting interaction
K104R | disrupting interaction

Variants of: B1
Conditions: with pml_human PML

Variant | effect of a mutation on the interaction
K104R | disrupting interaction
